Data reported in patent publication US20250163138A1 (Alexion, published 2025).
Changes are numbered by the printed parent chain. Names may count otherwise. Each block holds one molecule with its values, some of them ahead of it.

Assays:
[1] = molecular target: T1, human serum albumin (human, UniProt P02768 25-609); experiment: SPR (Biacore 3000), HSA amine-coupled on CM5 chip, pH 6.0, no VHH
T1 construct: also called HSA; human albumin

[2] = molecular target: T2, human complement protein C5 (human, UniProt P01031 19-1676); experiment: SPR (Biacore), pH 7.4
T2 construct: Native C5 is a two-chain protein made from one precursor; also called hC5; human C5

[3] = molecular target: T3, cynomolgus monkey (cyno) complement protein C5 (cynomolgus monkey, UniProt A0A2K5U1T1 19-1676); experiment: SPR (Biacore), pH 7.4
T3 construct: also called cC5; cyno C5

[4] = molecular target: T2, human complement protein C5; experiment: SPR (Biacore), pH 6.0
[5] = molecular target: T3, cynomolgus monkey (cyno) complement …; experiment: SPR (Biacore), pH 6.0
[6] = molecular target: T4, Cynomolgus monkey serum albumin (cynomolgus monkey, UniProt A2V9Z4 25-608); experiment: BLI (Octet HTX), VHH-His on Penta-His sensors, 100 nM albumin
T4 construct: also called CSA; cynomolgus albumin
From the text: (§1) VHH sequences were first analyzed by SDS-PAGE and Coomassie staining to determine approximate concentration relative to a known standard. Supernatant concentrations were then normalized and subjected to biolayer interferometry on an Octet HTX (Pall/ForteBio). Penta-His sensors were exposed to kinetics buffer for 60 seconds to establish baseline measurements. The sensors were then loaded with VHH-His containing supernatants for 300 seconds before a second baseline was established in kinetics buffer over 120 seconds. Tips were then incubated with 100 nM HSA or CSA in kinetics buffer for 600 seconds and dissociation measured over an additional 600 seconds.

[7] = molecular target: T1, human serum albumin; experiment: as above
From the text: as §1

[8] = molecular target: T2, human complement protein C5; experiment: sandwich: biotin-hC5 on CAP chip, test protein, then albumin; column 'Human C5 and Human Albumin'; protein has no anti-C5 domain
Method: (§2) The 26 constructs listed in Table 13 were expressed and the fusion proteins were evaluated for binding to human C5 and albumin (Table 13-Octet binding), generation of aggregates, hydrophobicity (HIC HPLC) and glycosylation (electrospray mass spectrometry). For the octet analysis, biotinylated human C5 was captured on a CAP chip followed by an injection of a test bi-specific molecule. Various concentrations of albumin were subsequently injected. Kinetics were determined at pH 7.4 (Biacore 3000).

[9] = molecular target: T2, human complement protein C5; experiment: binding kinetics (method not named), pH 7.4
[10] = molecular target: T3, cynomolgus monkey (cyno) complement …; experiment: binding kinetics (method not named), pH 7.4
[11] = molecular target: T4, Cynomolgus monkey serum albumin; experiment: binding kinetics (method not named), pH 7.4
[12] = molecular target: T5, Plasbumin® (UniProt P02768 25-609); experiment: binding kinetics (method not named), pH 7.4
[13] = molecular target: T2, human complement protein C5; experiment: binding kinetics (method not named), pH 6.0
[14] = molecular target: T3, cynomolgus monkey (cyno) complement …; experiment: binding kinetics (method not named), pH 6.0
[15] = molecular target: T4, Cynomolgus monkey serum albumin; experiment: binding kinetics (method not named), pH 6.0
[16] = molecular target: T5, Plasbumin®; experiment: binding kinetics (method not named), pH 6.0
[17] = molecular target: T1, human serum albumin; experiment: sandwich: biotin-hC5 on CAP chip, test protein, then albumin; column 'Human C5 and Human Albumin'; protein has no anti-albumin domain
Method: as §2

B1: CRL0484 (bispecific antibody)
chain: EVQLVESGGGLVQPGGSLRLSCAASGRTFSGILSPYAVGWFRQAPGKGLEFVSTITSGGSAIYTDSVKGRFTISRDNAKDSLYLQMNSLRAEDTAVYYCAVRTRRYGSNLGEVPQENEYGYWGQGTLVTVSSGGGGSGGGGSGGGGSEVQLVESGGGLVKPGGSLRLSCAASGRPVSNYAAAWFRQAPGKEREFVSAINWQKTATYADSVKGRFTISRDNAKNSLYLQMNSLRAEDTAVYYCAAVFRVVAPKTQYDYDYWGQGTLVTVSS
notes: anti-C5 VHH / (G4S)3 / anti-albumin VHH fusion, purified by Protein A; also called CRL0484 (C5/HSA)
Kd [2]: 1100 pM
koff [2]: 7.69e-05 s⁻¹
kon [2]: 70100 M⁻¹ s⁻¹
Kd [3]: 240 pM
koff [3]: 2.2e-05 s⁻¹
kon [3]: 91500 M⁻¹ s⁻¹
Kd [4]: 556 pM
koff [4]: 0.000236 s⁻¹
kon [4]: 425000 M⁻¹ s⁻¹
Kd [5]: 128 pM
koff [5]: 6.17e-06 s⁻¹
kon [5]: 48200 M⁻¹ s⁻¹

B4: CRL0500 (bispecific antibody)
chain: EVQLVESGGGLVKPGGSLRLSCAASGRPVSNYAAAWFRQAPGKEREFVSAINWQKTATYADSVKGRFTISRDNAKNSLYLQMNSLRAEDTAVYYCAAVFRVVAPKTQYDYDYWGQGTLVTVSSGGGGSGGGGSGGGGSEVQLVESGGGLVQPGGSLRLSCAASGRAHSDYAMAWFRQAPGQEREFVAGIGWSGGDTLYADSVRGRFTNSRDNSKNTLYLQMNSLRAEDTAVYYCAARQGQYIYSSMRSDSYDYWGQGTLVTVSS
notes: anti-albumin VHH / (G4S)3 / anti-C5 VHH fusion, purified by Protein A; also called CRL0500 (HSA/C5)
Kd [9]: 51.2 pM
koff [9]: 0.000491 s⁻¹
kon [9]: 9.6e+06 M⁻¹ s⁻¹
Kd [10]: 219 pM
koff [10]: 0.000818 s⁻¹
kon [10]: 3.74e+06 M⁻¹ s⁻¹
Kd [2]: 233 pM
koff [2]: 0.000672 s⁻¹
kon [2]: 2.88e+06 M⁻¹ s⁻¹
Kd [3]: 420 pM
koff [3]: 0.000848 s⁻¹
kon [3]: 2e+06 M⁻¹ s⁻¹
Kd [4]: 189 pM
koff [4]: 0.00152 s⁻¹
kon [4]: 8.02e+06 M⁻¹ s⁻¹
Kd [5]: 641 pM
koff [5]: 0.0025 s⁻¹
kon [5]: 3.91e+06 M⁻¹ s⁻¹
Kd [11]: 3780 pM
koff [11]: 0.0126 s⁻¹
kon [11]: 3.32e+06 M⁻¹ s⁻¹
Kd [12]: 936 pM
koff [12]: 0.00346 s⁻¹
kon [12]: 3.7e+06 M⁻¹ s⁻¹
Kd [13]: 138 pM
koff [13]: 0.00104 s⁻¹
kon [13]: 7.56e+06 M⁻¹ s⁻¹
Kd [14]: 744 pM
koff [14]: 0.0041 s⁻¹
kon [14]: 5.51e+06 M⁻¹ s⁻¹
Kd [15]: 2120 pM
koff [15]: 0.00693 s⁻¹
kon [15]: 3.27e+06 M⁻¹ s⁻¹
Kd [16]: 563 pM
koff [16]: 0.002 s⁻¹
kon [16]: 3.55e+06 M⁻¹ s⁻¹

B5: CRL0952 (bispecific antibody)
chain: B4 chain with S128A, S133A
Kd [9]: 53.6 pM
koff [9]: 0.000539 s⁻¹
kon [9]: 1.01e+07 M⁻¹ s⁻¹
Kd [10]: 223 pM
koff [10]: 0.000786 s⁻¹
kon [10]: 3.53e+06 M⁻¹ s⁻¹
Kd [11]: 5190 pM
koff [11]: 0.0152 s⁻¹
kon [11]: 2.93e+06 M⁻¹ s⁻¹
Kd [12]: 901 pM
koff [12]: 0.00359 s⁻¹
kon [12]: 3.98e+06 M⁻¹ s⁻¹
Kd [13]: 155 pM
koff [13]: 0.000907 s⁻¹
kon [13]: 5.84e+06 M⁻¹ s⁻¹
Kd [14]: 720 pM
koff [14]: 0.00399 s⁻¹
kon [14]: 5.55e+06 M⁻¹ s⁻¹
Kd [15]: 2490 pM
koff [15]: 0.00755 s⁻¹
kon [15]: 3.03e+06 M⁻¹ s⁻¹
Kd [16]: 649 pM
koff [16]: 0.0021 s⁻¹
kon [16]: 3.23e+06 M⁻¹ s⁻¹

Continued, values first:

response difference [1]: 30 RU
Molecule: FcRn (receptor)

binding result [6]: binds
binding result [7]: binds
B2: HAS042 (VHH)
VHH: EVQLVESGGGLVKPGGSLRLSCAASGRPVSNYAAAWFRQAPGKEREFVSAINWQKTATYADSVKGRFTISRDNAKNSLYLQMNSLRAEDTAVYYCAAVFRVVAPKTQYDYDYWGQGTLVTVSS
notes: anti-albumin VHH-His

binding result [8]: no binding
B3: TPP-3212 (VHH)
VHH: B2 VHH
notes: Control: no anti-C5 domain (only anti-albumin)

binding result [17]: no binding
B6: TPP-3211 (VHH)
VHH: EVQLVESGGGLVQPGGSLRLSCAASGRAHSDYAMAWFRQAPGQEREFVAGIGWSGGDTLYADSVRGRFTNSRDNSKNTLYLQMNSLRAEDTAVYYCAARQGQYIYSSMRSDSYDYWGQGTLVTVSS
notes: Control: no anti-albumin domain (only anti-C5)
